Assay: Stability study of the conjugate in phosphate-buffered saline
Assay type: physicochemical
Details: 37° C.
Description: A stability study confirmed that the conjugate 4a is stable in phosphate-buffered saline (PBS) at least for 8 hours at 37° C., which is stable enough for PET applications.

N[C@@H](CCC(=O)N[C@@H](CSC1CC(=O)N(CCCCCCON=C[C@H](O)[C@H](O)[C@H](O)CF)C1=O)C(=O)NCC(=O)O)C(=O)O (stereo partly shown) [conjugate 4a]
stable in phosphate-buffered saline (PBS): ≥ 8 h
